Assay results from ChEMBL document CHEMBL2074331, “Kinetics of P-glycoprotein-mediated efflux of paclitaxel” (J Pharmacol Exp Ther, 2001).

System: CC(=O)O[C@H]1C(=O)[C@@]2(C)[C@H]([C@H](OC(=O)c3ccccc3)[C@]3(O)C[C@H](OC(=O)[C@H](O)[C@@H](NC(=O)c4ccccc4)c4ccccc4)C(C)=C1C3(C)C)[C@]1(OC(C)=O)CO[C@@H]1C[C@@H]2O
Assay: TP_TRANSPORTER: uptake in MDR1-expressing MCF7 cells
Type: functional, cell-based

Substance: ATP-dependent translocase ABCB1 (Homo sapiens)
- Km: 0.014 µM
